This data set can be described thus: amyloid nucleation score (Sup35N fusion, yeast selection) (log enrichment); library NNK2; higher = more nucleation; inactive = no reads after selection. In short, it runs like this: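 For the nucleation score, DiMSum gave the log enrichment of output over input reads, centred on the mode score of non-aggregating sequences. Psi-negative yeast expressing Sup35N fused to peptides of 20 random codons were induced with 100 μM copper sulfate for 24 hours and grown 7 days at 30°C on medium lacking adenine and uracil. Input and output plasmid inserts were Illumina-sequenced, and sequences with under 100 input reads were excluded.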

Here are results for 139 substances from the supplement of paper PMC12042874.

± gives the uncertainty stated by the source.

Substance PLNSMNVAESESYGLSQMS yielded an amyloid nucleation score of 1.28 ± 0.37.

In the case of SALRSSEEFSAFCVE, the amyloid nucleation score was -0.084 ± 0.74.

On to NTMTSHMFENNRSIVTYLDV, for which the amyloid nucleation score was -0.718 ± 0.76.

The substance RDSVCMTRLDMGLDCEWVFG returned an amyloid nucleation score of 1.57 ± 0.36.

On to IYLFFSCFFAILTNLVRPFA, for which the amyloid nucleation score turned out to be 3.83 ± 0.081.

For the substance KFNFS, the amyloid nucleation score was -0.908 ± 0.44.

VVPIGETR returned an amyloid nucleation score of 1.49 ± 0.47.

On to FDSFPSS, for which the amyloid nucleation score was found to be 0.529 ± 0.2.

PDPLWGRPFYIWIMELGSRK registered an amyloid nucleation score of 2.32 ± 0.13.

Substance CRSNQNESLNGC showed an amyloid nucleation score of 0.436 ± 0.21.

Substance YLLFNLHAVYLLVSGEPSPC gave an amyloid nucleation score of 0.405 ± 0.39.

Regarding HGGRKG, the amyloid nucleation score came to 1.42 ± 0.31.

With AMVLFDGNVLWIHDRSCRRI, the amyloid nucleation score worked out at 0.862 ± 0.53.

The substance EFSSTTSALGKDVRVFNFAI displayed an amyloid nucleation score of -1.26 ± 0.62.

Consider DKSFVSLSRFHSGRLEIRVM, for which the amyloid nucleation score was -0.886 ± 0.49.

Take VTCGV: the amyloid nucleation score is 0.179 ± 0.56.

DTYDSCMSSVMISFR came in with an amyloid nucleation score of 0.343 ± 0.51.

Turning to KWIRDIRDLQTH, the amyloid nucleation score is -0.275 ± 0.65.

For the substance LRWAYMNTARQACMKAENG, the amyloid nucleation score was -0.079 ± 0.62.

On to NGSSKIERDQRRWGQKAVDT, for which the amyloid nucleation score came to 2.83 ± 0.089.

Substance LSRQFRRYLMLSLFYFVLLP had an amyloid nucleation score of -1.21 ± 0.38.

Consider AEEQLLWFCYFRELKILNIF, for which the amyloid nucleation score entry was “inactive”.

RLTYNKYLTWNCYVFLSHAL had an amyloid nucleation score of -0.464 ± 1.1.

For the substance FFTVDRDFLYFPDFSKRVVM, the amyloid nucleation score is -0.569 ± 0.79.

In turn, IFCWRVSCEQRVFYLIESGR registered an amyloid nucleation score of -0.388 ± 0.24.

YVNFD registered an amyloid nucleation score of -0.299 ± 0.48.

GTKKARSGARQCLGWEILWM yielded an amyloid nucleation score of 0.516 ± 0.43.

SRRVFVKWGNWSCFVVVEDN gave an amyloid nucleation score of 0.072 ± 0.16.

GQGDYMRFSDNAGGPYSKLE registered an amyloid nucleation score of 1.73 ± 0.24.

As for SVLAGDLNLRLVFYCMFMYH, the amyloid nucleation score is 1.61 ± 0.31.

The substance LSRLNFGIFDKVTAATGLMK displayed an amyloid nucleation score of -1.26 ± 0.78.

For the substance HGGQRMCAGCV, the amyloid nucleation score was found to be 0.865 ± 0.31.

The substance CLHCSRFSKTLYRKFRNREN came in with an amyloid nucleation score of -0.33 ± 0.76.

Substance ENLYGFWYLTRCRMF showed an amyloid nucleation score of -0.096 ± 0.39.

Regarding FEAVDWFKL, the amyloid nucleation score is -0.603 ± 0.74.

For VIKTFVILDVYAGLSCQC, the amyloid nucleation score turned out to be 1.25 ± 0.34.

With LCVYNPNVKYVHPCWTASGG, the amyloid nucleation score was -0.529 ± 0.44.

As to FNYGCFVLDSDHVAGKGILI, the amyloid nucleation score result was “inactive”.

As for LRIGRYQN, the amyloid nucleation score entry is “inactive”.

In turn, VCWGFSFATHGLWDMAF gave an amyloid nucleation score of -0.32 ± 0.26.

As for TLLSFRTVDNKIYKVLWVKT, the amyloid nucleation score was 0.418 ± 0.48.

For the substance WVDMAL, the amyloid nucleation score came to 0.168 ± 0.8.

For the substance VMVAYSLLGSRSSILLW, the amyloid nucleation score worked out at 0.021 ± 0.32.

SLFLARRASTIARLFKRVYM yielded an amyloid nucleation score of 0.127 ± 0.63.

CEFALYAFWCCIYLRFNKYS gave an amyloid nucleation score of -0.606 ± 0.44.

For the substance YCGTVFHGSRRECGISVRGW, the amyloid nucleation score is 1.19 ± 0.33.

YDYVEGAEPPLGDGCIVVFH showed an amyloid nucleation score of -0.451 ± 0.79.

In the case of LVISM, the amyloid nucleation score came out at 0.348 ± 0.46.

Substance GYLGMWVKTCCQWTGERSDM showed an amyloid nucleation score of 4.66 ± 0.057.

Substance KTRYALPVDQCYMKNRNMLV yielded an amyloid nucleation score of 0.295 ± 0.51.

Substance KGCVVFFRFSCNCSMICAWV showed an amyloid nucleation score of -0.668 ± 0.48.

SIVFFNRC came in with an amyloid nucleation score of 7.562 ± 0.05.

On to QEMYALACHVLTCCNLRNKR, for which the amyloid nucleation score turned out to be 9.866 ± 0.034.

Turning to KVSWFVRIYMCEIRMRIGRS, the amyloid nucleation score was 1.44 ± 0.33.

For the substance DFAGSKDDWTSQMMGVLDGL, the amyloid nucleation score is -0.689 ± 0.44.

For CRMFSEHSYRRSSLSVPGMN, the amyloid nucleation score entry is “inactive”.

Substance YSMICGLHCSVLFRGNSEGT displayed an amyloid nucleation score of 4.782 ± 0.039.

VHGRGNLKA showed an amyloid nucleation score of 0.032 ± 0.33.

The substance LLVGLIASPPGGTGVTLFPT displayed an amyloid nucleation score of 4.15 ± 0.049.

YGFDLKSGQSADASCASVSG registered an amyloid nucleation score of 0.586 ± 0.31.

With LPHESFNQHGKLFMAD, the amyloid nucleation score was determined as 0.054 ± 0.46.

In turn, YYGCCMVLTEPVG displayed an amyloid nucleation score of 6.29 ± 0.072.

Regarding NSRIL, the amyloid nucleation score result is “inactive”.

ICYLKTQGKWFIILPWFVMM: the amyloid nucleation score turned out to be 0.241 ± 0.8.

Consider CKKLMLILEFWMCMLSLNIA, for which the amyloid nucleation score worked out at 3.58 ± 0.072.

On to RTYWGRKLNCVQF, for which the amyloid nucleation score was found to be 6.716 ± 0.04.

As for VRSISASLSAMIYR, the amyloid nucleation score is -0.925 ± 0.45.

As for FYYSLTMRLD, the amyloid nucleation score is -0.322 ± 0.42.

Consider NLMIKCVGR, for which the amyloid nucleation score was -1.05 ± 0.76.

As for GIIISRSNKLFFVKCCNN, the amyloid nucleation score was 1.7 ± 0.079.

RTLHSLWHNAT registered an amyloid nucleation score of 0.906 ± 0.35.

RIRASKPVFKAFLTPGSYLF: the amyloid nucleation score is -1.87 ± 1.

Turning to MDKFFFSFTYGGLSQPDQGV, the amyloid nucleation score was -1.35 ± 1.1.

As to MDAYRCWAQMYRTYMLMCLV, the amyloid nucleation score stood at 0.039 ± 0.27.

NLQSTMMLYYCFRVMMLLAW showed an amyloid nucleation score of -0.762 ± 0.38.

With LINMLGWVRFY, the amyloid nucleation score came out at 0.623 ± 0.44.

Substance LKWDASKAWILRCQCFRELW gave an amyloid nucleation score of -0.678 ± 0.76.

On to MWMEVTRPPTGHFRIRGGQA, for which the amyloid nucleation score result is “inactive”.

Consider YSTYRASVGFARRGMPLPIL, for which the amyloid nucleation score was 0.015 ± 0.76.

Consider LRYIFKMS, for which the amyloid nucleation score is -1.34 ± 0.49.

As to CDPVSNFCIMLMCFIREYGR, the amyloid nucleation score turned out to be 1.99 ± 0.087.

The substance FYPWDSVCEFSLGCMSNPQA yielded an amyloid nucleation score of 0.158 ± 0.3.

With SMNPWYIHWLI, the amyloid nucleation score is 0.003 ± 0.79.

TNGYSVRLYKGSCVILIGL registered an amyloid nucleation score of 5.12 ± 0.092.

Consider FGTILGSLVLVIWI, for which the amyloid nucleation score result is “inactive”.

Regarding RALLW, the amyloid nucleation score is -0.094 ± 1.

Substance LQDYCACNGVSCCIVYCKSF had an amyloid nucleation score of 8.693 ± 0.053.

Consider MFGGLGTDSLA, for which the amyloid nucleation score is -0.46 ± 1.

In the case of YMVDIGSHYKVCVMFHWTFS, the amyloid nucleation score was -0.88 ± 0.45.

Turning to EHLGIIAIRCAQIHKFLPEL, the amyloid nucleation score was 0.539 ± 0.36.

Substance SKQCSKILTIKRMISLTGNE registered an amyloid nucleation score of -0.542 ± 0.49.

Regarding RVKYILMVQSLIFWNHILNV, the amyloid nucleation score result was “inactive”.

GSIVVNGIGKLGKERRVTSV returned an amyloid nucleation score of 0.302 ± 0.21.

Regarding IGAMN, the amyloid nucleation score is 0.586 ± 0.44.

In turn, LWREYLVHGSP yielded an amyloid nucleation score of 0.329 ± 0.5.

Take FILGSESNLRVSMRLFGSNW: the amyloid nucleation score turned out to be 5.019 ± 0.03.

With ASVLTDPGVRSGRLRVCVGQ, the amyloid nucleation score was -0.121 ± 0.35.

In turn, GVCMSLEVKNKKLSNEHNS gave an amyloid nucleation score of 5.18 ± 0.092.

With TCVKASNRG, the amyloid nucleation score was -0.608 ± 0.55.

In turn, NREFCFFVSDVKIPYTPCVP came in with an amyloid nucleation score of -0.609 ± 0.32.

The substance LQCIGNYSDWGSMVGREQSK showed an amyloid nucleation score of -0.066 ± 1.

Regarding CFMLVFSRTCVSMYTIVNPS, the amyloid nucleation score is 4.59 ± 0.11.

For TEEWFFCPRLTLKFLKEVHK, the amyloid nucleation score stood at 4.94 ± 0.092.

As for SSYMSRALSCGHSFGKVGAN, the amyloid nucleation score is 0.697 ± 0.81.

For QWNMRAAQCTTNS, the amyloid nucleation score was found to be 0.722 ± 0.34.

Take HRSMPIRYWVVTIWYGRSDS: the amyloid nucleation score is 0.569 ± 0.41.

IARIRILCLL: the amyloid nucleation score was found to be 0.234 ± 0.19.

With RPRAWI, the amyloid nucleation score was found to be 0.428 ± 0.44.

For the substance SGYDFHVRMTCCIWH, the amyloid nucleation score was found to be 9.166 ± 0.04.

The substance TLGKVGHYRRNNNMPVARFD registered an amyloid nucleation score of -0.11 ± 0.74.

With QGSNRACGLSEDCLFTV, the amyloid nucleation score is 0.282 ± 0.22.

DMGGPTTIY registered an amyloid nucleation score of 0.798 ± 0.67.

The substance HLIAFLSAYFYYVMLARMYF showed an amyloid nucleation score of -1.87 ± 1.1.

In turn, GFRSLNVSRANLCSYIRHLL registered an amyloid nucleation score of 0.02 ± 0.44.

GNMKCQVTLILMSTSDIREL registered an amyloid nucleation score of 7.039 ± 0.041.

In the case of TSRLHNFATRIIVCYRLLMQ, the amyloid nucleation score is -0.525 ± 1.1.

DNCFAAFSFRRGVAYVDL came in with an amyloid nucleation score of -0.52 ± 0.38.

With VYMFCRGGTHEAYFFHTGLC, the amyloid nucleation score was -0.256 ± 0.79.

In turn, TLCGFNKGAAIGWCTWNSEK displayed an amyloid nucleation score of 4.05 ± 0.13.

RKWLISHPFLRRRGLSSLVF: the amyloid nucleation score is 0.99 ± 0.2.

For DGFMLMFFTITIRFPNALQV, the amyloid nucleation score entry is “inactive”.

The substance YSLRLDVYYRGWADYPGLWT showed an amyloid nucleation score of 1.73 ± 0.18.

VTALDMFVLSWGCGWGMN returned an amyloid nucleation score of 3.06 ± 0.17.

The substance RTFAKVLKSSYQRNLPSTDV registered an amyloid nucleation score of 0.267 ± 0.24.

Turning to FLVYWTMLVVYGYCVFGWIN, the amyloid nucleation score is -1.3 ± 0.78.

In turn, RGTNQSSVSMRGAL came in with an amyloid nucleation score of 0.523 ± 0.36.

Take PTGNQLKKCVDKCGGRSGGE: the amyloid nucleation score entry was “inactive”.

NVGSVKHGS registered an amyloid nucleation score of 0.531 ± 0.57.

HIWRHDRVLLGSSNTKYMCG had an amyloid nucleation score of 0.759 ± 0.8.

CFGRGLCVSIGVVRCTGGPC gave an amyloid nucleation score of 0.119 ± 0.62.

Consider SLGALNKFPRILIVVRYRVC, for which the amyloid nucleation score result is “inactive”.

The substance WGLGCMSQSTLHGSLISSVR came in with an amyloid nucleation score of -0.5 ± 0.44.

On to SECENAFVGVPPWRTKILWS, for which the amyloid nucleation score came to 2.19 ± 0.12.

On to VLDSAYCAFVYFFIVVIWWF, for which the amyloid nucleation score was -0.595 ± 0.61.

Take YVRNFPLGLSV: the amyloid nucleation score was -1.63 ± 1.1.

As to FSRLNSWILRSHGNKVKALT, the amyloid nucleation score worked out at 0.552 ± 0.66.

NLMVHVFAAVMGINDLKC came in with an amyloid nucleation score of 1.41 ± 0.18.

Regarding CSVVTNGLLNMSSFPHVFCM, the amyloid nucleation score worked out at 1.79 ± 0.11.

In turn, FDMLVNGHVIYRNRKSSSYI yielded an amyloid nucleation score of 0.216 ± 0.62.
